Data as given in patent US20250382355A1 (Merck Sharp & Dohme, published 2025).

T1: MERS spike protein on recombinant CHO K1 cells (MERS-CoV, UniProt K9N5Q8 18-1353)
T1 sequence: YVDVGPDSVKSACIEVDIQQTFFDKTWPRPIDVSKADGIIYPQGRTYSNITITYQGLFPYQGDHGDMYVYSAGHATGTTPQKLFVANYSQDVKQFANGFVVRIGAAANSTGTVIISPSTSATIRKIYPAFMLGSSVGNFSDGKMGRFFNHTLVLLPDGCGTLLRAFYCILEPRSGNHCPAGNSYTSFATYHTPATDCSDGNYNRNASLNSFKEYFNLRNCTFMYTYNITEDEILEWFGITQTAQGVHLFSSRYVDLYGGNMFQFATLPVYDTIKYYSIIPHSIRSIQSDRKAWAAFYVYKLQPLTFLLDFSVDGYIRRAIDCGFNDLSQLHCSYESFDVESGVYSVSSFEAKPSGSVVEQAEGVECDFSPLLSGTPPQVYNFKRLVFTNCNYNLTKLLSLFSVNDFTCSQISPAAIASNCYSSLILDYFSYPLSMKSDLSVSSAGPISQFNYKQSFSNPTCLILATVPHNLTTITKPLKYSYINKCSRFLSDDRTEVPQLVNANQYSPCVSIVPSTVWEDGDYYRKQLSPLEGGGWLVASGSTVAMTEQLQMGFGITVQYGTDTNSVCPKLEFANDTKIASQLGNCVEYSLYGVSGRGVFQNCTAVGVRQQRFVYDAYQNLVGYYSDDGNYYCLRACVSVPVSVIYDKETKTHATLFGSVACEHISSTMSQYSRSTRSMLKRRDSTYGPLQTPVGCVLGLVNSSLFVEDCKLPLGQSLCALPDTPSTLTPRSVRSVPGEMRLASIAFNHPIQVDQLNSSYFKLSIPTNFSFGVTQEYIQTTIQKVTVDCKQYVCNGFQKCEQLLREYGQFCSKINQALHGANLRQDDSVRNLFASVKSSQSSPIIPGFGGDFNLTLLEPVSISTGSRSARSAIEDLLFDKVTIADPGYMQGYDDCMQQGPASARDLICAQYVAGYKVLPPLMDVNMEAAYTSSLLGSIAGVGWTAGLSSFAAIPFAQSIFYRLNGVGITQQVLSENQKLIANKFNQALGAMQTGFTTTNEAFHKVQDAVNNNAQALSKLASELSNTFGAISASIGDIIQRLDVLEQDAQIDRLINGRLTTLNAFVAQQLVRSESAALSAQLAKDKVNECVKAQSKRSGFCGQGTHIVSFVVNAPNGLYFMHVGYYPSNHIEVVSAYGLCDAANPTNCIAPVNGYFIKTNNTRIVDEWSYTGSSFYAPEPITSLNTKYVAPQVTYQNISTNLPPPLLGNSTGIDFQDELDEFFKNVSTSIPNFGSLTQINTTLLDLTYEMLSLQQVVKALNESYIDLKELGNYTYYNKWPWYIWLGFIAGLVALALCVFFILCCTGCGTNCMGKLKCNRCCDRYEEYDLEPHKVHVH

T2: OC43 spike protein (human coronavirus OC43, UniProt P36334 14-1278)
T2 sequence: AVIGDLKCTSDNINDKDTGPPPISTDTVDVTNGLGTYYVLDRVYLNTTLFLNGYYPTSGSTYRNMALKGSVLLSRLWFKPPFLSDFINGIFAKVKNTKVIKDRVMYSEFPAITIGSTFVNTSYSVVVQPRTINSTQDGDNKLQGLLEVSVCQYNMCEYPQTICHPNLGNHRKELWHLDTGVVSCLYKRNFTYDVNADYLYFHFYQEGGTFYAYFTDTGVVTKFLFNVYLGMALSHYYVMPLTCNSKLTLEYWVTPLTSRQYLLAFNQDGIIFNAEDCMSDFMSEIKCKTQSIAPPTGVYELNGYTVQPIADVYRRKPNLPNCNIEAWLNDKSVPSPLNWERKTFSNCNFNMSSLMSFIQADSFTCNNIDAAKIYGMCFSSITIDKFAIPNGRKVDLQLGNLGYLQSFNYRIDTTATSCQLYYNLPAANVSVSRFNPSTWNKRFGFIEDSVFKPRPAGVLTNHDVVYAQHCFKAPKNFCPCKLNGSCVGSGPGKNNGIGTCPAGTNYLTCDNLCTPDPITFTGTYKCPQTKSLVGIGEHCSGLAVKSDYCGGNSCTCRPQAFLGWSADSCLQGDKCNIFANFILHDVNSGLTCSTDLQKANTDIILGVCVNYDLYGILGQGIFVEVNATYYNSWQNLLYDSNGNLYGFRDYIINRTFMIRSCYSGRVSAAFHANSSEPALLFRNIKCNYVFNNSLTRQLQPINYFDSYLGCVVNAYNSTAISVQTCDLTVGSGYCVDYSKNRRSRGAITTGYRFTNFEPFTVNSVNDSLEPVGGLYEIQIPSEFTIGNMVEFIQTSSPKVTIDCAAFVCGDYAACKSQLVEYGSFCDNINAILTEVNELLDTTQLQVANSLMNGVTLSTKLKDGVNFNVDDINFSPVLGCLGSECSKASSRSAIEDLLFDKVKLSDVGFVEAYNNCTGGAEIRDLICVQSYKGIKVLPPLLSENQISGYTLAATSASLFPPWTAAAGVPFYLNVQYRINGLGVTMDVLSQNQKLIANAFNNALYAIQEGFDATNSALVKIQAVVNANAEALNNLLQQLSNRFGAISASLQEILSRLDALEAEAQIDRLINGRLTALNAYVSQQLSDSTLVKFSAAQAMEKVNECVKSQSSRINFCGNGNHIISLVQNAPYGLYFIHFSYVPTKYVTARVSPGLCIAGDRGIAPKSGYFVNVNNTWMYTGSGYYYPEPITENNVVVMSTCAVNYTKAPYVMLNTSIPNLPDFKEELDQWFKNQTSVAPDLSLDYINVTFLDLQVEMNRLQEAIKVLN


Legend:
[1] = target: spike protein of authentic SARS-CoV/Urbani virus (SARS-CoV, UniProt P59594 14-1255); assay: cell-based or functional assay
[2] = target: spike protein of authentic SARS-CoV-2 virus (SARS-CoV-2, UniProt P0DTC2 14-1273); assay: cell-based or functional assay
[3] = target: T3, SARS-CoV-2 spike protein on recombinant CHO K1 cells (SARS-CoV-2, UniProt P0DTC2 14-1273); assay: FACS on CHO K1 cells
T3 construct: whole, on cells

[4] = target: SARS-CoV spike protein on recombinant CHO K1 cells (SARS-CoV, UniProt P59594 14-1255); assay: FACS on CHO K1 cells
[5] = target: T1, MERS spike protein on recombinant CHO …; assay: FACS on CHO K1 cells
[6] = target: SARS-CoV spike on rVSV-deltaG-Luc pseudovirus (SARS-CoV, UniProt P59594 14-1236); assay: cell-based or functional assay
OC43 spike protein = target: T2, OC43 spike protein; assay: ELISA

Row | Binder | authentic virus neutralization IC50 [1] [nM] | authentic virus neutralization IC50 [2] [nM] | EC50 [3] [nM] | EC50 [4] [nM] | binding result [5] | pseudovirus neutralization IC50 [6] [nM] | EC50 (OC43 spike protein) [nM] | EC50 [5] [nM]
1 | 10B8 VHH-Fc (Fc fusion) QVQLVESGGGLVQPGGSLRLSCAASGITLDYYAIAWFRQAPGKEREGVSCFCSSDGDIRYADSVKGRFTISRDNAKNTVYLQMNSLKPEDTAVYYCATERVYSSTWFFHRYSELDFGSWGRGTQVTVSS | 0.04 | 0.3 | 0.19 | 0.14 | no binding | 0.09 | – | –
2 | 1E4 VHH-Fc (Fc fusion) QVLLVESGGGLVQAGGLLRLACSASGRTFTENVMGWFRQAPGKEREFVAAINWNTGSTYYSDSRKGRFTISKDNAKNTMFLQINNLKPEDTAVYYCGGTSSSYYYIGEFIPDYWGQGTQVTVSS | 0.05 | 0.2 | 0.06 | – | no binding | 0.06 | – | –
3 | 6A1 VHH-Fc (Fc fusion) QVQLVESGGGLVQAGGSLRLSCTASGNIFSVNVMGWHRQAPGKRRELVAALTNDGRRNYADSVKGRFTISRDNAKNTIYLEMNSLKPEDTAVYYCGTGTLESGFNSWGQGLQVTVSS | – | – | 0.14 | – | – | – | 0.08 | 0.13
